The source of these data is IntAct's records for PubMed 18033301.

Sequences and labels used below:
B1: Vesicle transport through interaction with t-SNAREs homolog 1B (Mus musculus), O88384 (parent)
chain: MAASAASSEHFEKLHEIFRGLLEDLQGVPERLLGTAGTEEKKKLVRDFDENQQEANETLAEMEEELRYAPLTFRNPMMSKLRNYRKDLAKLHREVRSTPLTAAPGGRGDLKYGTYTLENEHLNRLQSQRALLLQGTESLNRATQSIERSHRIATETDQIGTEIIEELGEQRDQLERTKSRLVNTNENLSKSRKILRSMSRKVITNKLLLSVIILLELAILVGLVYYKFFRHH
partner: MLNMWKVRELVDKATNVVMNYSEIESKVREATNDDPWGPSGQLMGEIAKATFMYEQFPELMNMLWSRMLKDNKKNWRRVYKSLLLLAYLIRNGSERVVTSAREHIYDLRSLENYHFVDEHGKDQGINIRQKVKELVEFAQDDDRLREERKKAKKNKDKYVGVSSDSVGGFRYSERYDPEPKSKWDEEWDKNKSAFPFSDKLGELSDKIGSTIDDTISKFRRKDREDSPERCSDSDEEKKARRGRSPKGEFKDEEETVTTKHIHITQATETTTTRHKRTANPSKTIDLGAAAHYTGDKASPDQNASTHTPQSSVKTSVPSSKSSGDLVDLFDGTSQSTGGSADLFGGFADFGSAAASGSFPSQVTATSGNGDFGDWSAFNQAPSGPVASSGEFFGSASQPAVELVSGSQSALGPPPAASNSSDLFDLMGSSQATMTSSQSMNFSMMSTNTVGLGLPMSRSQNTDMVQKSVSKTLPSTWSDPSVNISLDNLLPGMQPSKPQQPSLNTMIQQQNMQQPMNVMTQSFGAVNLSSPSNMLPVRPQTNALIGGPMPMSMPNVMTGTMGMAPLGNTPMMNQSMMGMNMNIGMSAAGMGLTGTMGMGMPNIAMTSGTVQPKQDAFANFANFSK
B2: Clathrin interactor 1 (Homo sapiens), Q14677 (parent)
chain: B1 partner
partner: B1 chain

One experiment covers variants of B1. The note with it: with epn4_human CLINT1, Q14677.
Consider MAASAASSEHFEKLHEIFRGLLEDLQGVPERLLGTAGTEEKKKLVRDFDENQQEANETLAEMEEWLRYAPLTFRNPMMSKLRNYRKDLAKLHREVRSTPLTAAPGGRGDLKYGTYTLENEHLNRLQSQRALLLQGTESLNRATQSIERSHRIATETDQIGTEIIEELGEQRDQLERTKSRLVNTNENLSKSRKILRSMSRKVITNKLLLSVIILLELAILVGLVYYKFFRHH [E65W], for which the “effect of a mutation on the interaction” value is on record as “disrupting interaction strength”.

Consider MAASAASSEHFAKLHEIFRGLLEDLQGVPERLLGTAGTEEKKKLVRDFDENQQEANETLAEMEEELRYAPLTFRNPMMSKLRNYRKDLAKLHREVRSTPLTAAPGGRGDLKYGTYTLENEHLNRLQSQRALLLQGTESLNRATQSIERSHRIATETDQIGTEIIEELGEQRDQLERTKSRLVNTNENLSKSRKILRSMSRKVITNKLLLSVIILLELAILVGLVYYKFFRHH [E12A], for which the “effect of a mutation on the interaction” value is “disrupting interaction strength”.

For MAASAASSEHFEKLHEIFRGLLRDLQGVPERLLGTAGTEEKKKLVRDFDENQQEANETLAEMEEELRYAPLTFRNPMMSKLRNYRKDLAKLHREVRSTPLTAAPGGRGDLKYGTYTLENEHLNRLQSQRALLLQGTESLNRATQSIERSHRIATETDQIGTEIIEELGEQRDQLERTKSRLVNTNENLSKSRKILRSMSRKVITNKLLLSVIILLELAILVGLVYYKFFRHH [E23R], the “effect of a mutation on the interaction” value is “disrupting interaction strength”.

Regarding MAASAASSEHFEKLHEIFRGLLEDLQGVPERLLGTAGTEEKKKLVRDFDENQQEANETLAEMEEELRYAPLTSRNPMMSKLRNYRKDLAKLHREVRSTPLTAAPGGRGDLKYGTYTLENEHLNRLQSQRALLLQGTESLNRATQSIERSHRIATETDQIGTEIIEELGEQRDQLERTKSRLVNTNENLSKSRKILRSMSRKVITNKLLLSVIILLELAILVGLVYYKFFRHH [F73S], the “effect of a mutation on the interaction” value was “disrupting interaction strength”.

Regarding MAASAASWEHFEKLHEIFRGLLEDLQGVPERLLGTAGTEEKKKLVRDFDENQQEANETLAEMEEELRYAPLTFRNPMMSKLRNYRKDLAKLHREVRSTPLTAAPGGRGDLKYGTYTLENEHLNRLQSQRALLLQGTESLNRATQSIERSHRIATETDQIGTEIIEELGEQRDQLERTKSRLVNTNENLSKSRKILRSMSRKVITNKLLLSVIILLELAILVGLVYYKFFRHH [S8W], the “effect of a mutation on the interaction” value is recorded as “disrupting interaction strength”.

Variants of B2 are the subject of the next experiment. The conditions noted are these: with vti1b_mouse Vti1b.
Turning to M53D;Y54D, the “effect of a mutation on the interaction” value was “disrupting interaction strength”.

For the variant R96S, the “effect of a mutation on the interaction” value is given as “disrupting interaction strength”.

As to R146E, the “effect of a mutation on the interaction” value is “disrupting interaction strength”.

On to F52D, for which the “effect of a mutation on the interaction” value is “disrupting interaction strength”.
